Test results from article doi:10.1101/2020.06.02.131086.

Biological target: human S100A5 (hA5) (human) (UniProt P33763)
Assay: ITC

Sequence of UniProt P33763 (P33763 whole entry): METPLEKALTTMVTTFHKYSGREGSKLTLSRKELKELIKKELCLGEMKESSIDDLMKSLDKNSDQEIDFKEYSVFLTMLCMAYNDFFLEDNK

GAGGERWQRVLLSLAEDV [α-1-syn peptide (fragment of human α-1-syntrophin)]
Kd: 4.8 µM
dH (kcal · mol^−1): -4.5
